Laboratory results reported in article PMC9520037 (The Journal of Biological Chemistry, 2022).

Molecular target: T1, MAP2c-1-467 with N-terminal histidine tag (H6-MAP2c) (rat, UniProt P15146-3 1-467, RED-tris-NTA fluorescent label on the histidine tag)
T1 sequence: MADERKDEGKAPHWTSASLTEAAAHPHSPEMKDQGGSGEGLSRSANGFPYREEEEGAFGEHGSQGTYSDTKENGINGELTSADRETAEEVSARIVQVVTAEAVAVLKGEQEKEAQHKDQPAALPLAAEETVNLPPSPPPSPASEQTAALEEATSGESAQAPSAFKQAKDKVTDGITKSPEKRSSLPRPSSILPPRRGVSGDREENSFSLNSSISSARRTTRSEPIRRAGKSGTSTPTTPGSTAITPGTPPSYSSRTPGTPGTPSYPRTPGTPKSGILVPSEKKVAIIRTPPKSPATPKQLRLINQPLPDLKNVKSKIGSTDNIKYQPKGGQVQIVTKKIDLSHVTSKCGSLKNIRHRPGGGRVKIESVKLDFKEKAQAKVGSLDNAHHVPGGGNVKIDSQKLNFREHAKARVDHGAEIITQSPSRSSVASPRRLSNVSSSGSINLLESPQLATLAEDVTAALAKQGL
Test: MST

Kd: 22 ± 5 nM
B1: SH3 domain of Fyn fused to hexahistidine tag (Fyn-SH3) (domain or fragment)
chain: not shown
